To fix the notation:
B1: CNTF: soluble growth factor (protein, UniProt P26441 1-200, looked up)
Ciliary neurotrophic factor: MAFTEHSPLTPHRRDLCSRSIWLARKIRSDLTALTESYVKHQGLNKNINLDSADGMPVASTDQWSELTEAERLQENLQAYRTFHVLLARLLEDQQVHFTPTEGDFHQAIHTLLLQVAAFAYQIEELMILLEYKIPRNEADGMPINVGDGGLFEKKLWGLKVLQELSQWTVRSIHDLRFISSHQTGIPARGSHYIANNKKM
B2: BDNF: soluble growth factor (protein, UniProt P23560 19-247, looked up)
Neurotrophic factor BDNF …: APMKEANIRGQGGLAYPGVRTHGTLESVNGPKAGSRGLTSLADTFEHVIEELLDEDQKVRPNEENNKDADLYTSRVMLSSQVPLEPPLLFLLEEYKNYLDAANMSMRVRRHSDPARRGELSVCDSISEWVTAADKKTAVDMSGGTVTVLEKVPVSKGQLKQYFYETKCNPMGYTKEGCRGIDKRHWNSQCRTTQSYVRALTMDSKKRIGWRFIRIDTSCVCTLTIKRGR
B3: M-CSF: soluble growth factor (protein, UniProt P09603 33-554, looked up)
Macrophage colony-stimulating …: EEVSEYCSHMIGSGHLQSLQRLIDSQMETSCQITFEFVDQEQLKDPVCYLKKAFLLVQDIMEDTMRFRDNTPNAIAIVQLQELSLRLKSCFTKDYEEHDKACVRTFYETPLQLLEKVKNVFNETKNLLDKDWNIFSKNCNNSFAECSSQDVVTKPDCNCLYPKAIPSSDPASVSPHQPLAPSMAPVAGLTWEDSEGTEGSSLLPGEQPLHTVDPGSAKQRPPRSTCQSFEPPETPVVKDSTIGGSPQPRPSVGAFNPGMEDILDSAMGTNWVPEEASGEASEIPVPQGTELSPSRPGGGSMQTEPARPSNFLSASSPLPASAKGQQPADVTGTALPRVGPVRPTGQDWNHTPQKTDHPSALLRDPPEPGSPRISSLRPQGLSNPSTLSAQPQLSRSHSSGSVLPLGELEGRRSTRDRRSPAEPEGGPASEGAARPLPRFNSVPLTDTGHERQSEGSFSPQLQESVFHLLVPSVILVLLAVGGLLFYRWRRRSHQEPQRADSPLEQPEGSPLTQDDRQVELPV
B4: G-CSF: soluble growth factor (protein, UniProt P09919 31-207, looked up)
Granulocyte …: TPLGPASSLPQSFLLKCLEQVRKIQGDGAALQEKLVSECATYKLCHPEELVLLGHSLGIPWAPLSSCPSQALQLAGCLSQLHSGLFLYQGLLQALEGISPELGPTLDTLQLDVADFATTIWQQMEELGMAPALQPTQGAMPAFASAFQRRAGGVLVASHLQSFLEVSYRVLRHLAQP

This test deals with cortical stem cell clones. The test is described as follows: Clonal growth of cortical stem cells with added soluble growth factors (without feeder cells). Particulars: factor added at 10-50 ng/ml to serum-free medium with FGF2, no feeder cells. The class given is cell-based, mouse. On the procedure: Embryonic cerebral cortices and adult SVZ were dissected and dissociated as described (18-20). Single cells were plated into poly-l-lysine-coated 6-well plates (Costar) at clonal density (2000-4000 cells/well) and cultured in basal serum-free medium consisting of DMEM, B27, N2, NAC and 10 ng/ml FGF2 (19,20). To test the effects of soluble growth factors (PDGF, CNTF, TGFβ, IGF1, IL1, IL6, G-CSF, M-CSF, GM-CSF, LIF, BDNF, Steel factor, VEGF or EGF), each factor was added to serum-free medium with FGF2 at a range of 10-50 ng/ml, and clonal growth (cell number and generation of neurons and glia) was assessed (without co-cultured feeder cells). LIF and VEGF were also tested in combination, each added at 10 ng/ml into serum-free medium, with and without FGF2.
For the molecule B1, the “duplication of the effect of endothelial co-culture on clonal growth” value (“duplication” for short) is given as “none duplicated the result we see from endothelial co-cultures”.

For the molecule B2, the “duplication” value is on record as “none duplicated the result we see from endothelial co-cultures”.

Take B3: the “duplication” value was “none duplicated the result we see from endothelial co-cultures”.

For B4, the “duplication” value was “none duplicated the result we see from endothelial co-cultures”.

The record behind these values is US7901936B2, “Method for stimulating self-renewal of neural stem cells and enhancing neurogenesis” (Albany Medical College, priority 2004, dated 2011).
